Experimental data as given in article PMC4370617, “Development of a Molecularly Evolved, Highly Sensitive CaMKII FRET Sensor with Improved Expression Pattern” (PLoS ONE, 2015).

Target: the molecule itself
Assay: native gel or EMSA; His-tagged association domains purified from HeLa cells, incubated in 25 mM HEPES pH 7.3, 50 mM KCl, 1 mM DTT for 1 hour at 37°C; native-PAGE, silver staining

B1: His-tagged association domain of CaMKIIα, wild type (domain or fragment, rat, UniProt P11275 345-478, looked up)
chain: VRKQEIIKVTEQLIEAISNGDFESYTKMCDPGMTAFEPEALGNLVEGLDFHRFYFENLWSRNSKPVHTTILNPHIHLMGDESACIAYIRITQYLDAGGIPRTAQSEETRVWHRRDGKWQIVHFHRSGAPSVLPH
notes: association domain of CaMKIIα, rat, 345-end; Printed molecular weight of the His-tagged domain: 19,800; The limits 345-end are stated for the library fragment; they are not restated for the HeLa expression construct; also called AD WT; source: HeLa, transfected, purified (Ni-Sepharose)
B1: binds.
